Experimental data as given in the Human Domainome abundance scans (Beltran et al. 2025).
± gives the uncertainty stated by the source.

Assay: abundance fitness (aPCA) (normalised: wild type 0, dead -1); higher = more abundant; growth selection in yeast, the domain comes from the species named
Conditions: Homo sapiens

Which abundance fitness does the source give for “SAFB-like transcription modulator T23Y, Q9NWH9” here?
The abundance fitness was -0.083 ± 0.033.

For “SAFB-like transcription modulator T42A, Q9NWH9”, which abundance fitness is on record?
The abundance fitness was -0.045 ± 0.092.

With “SAFB-like transcription modulator T42C, Q9NWH9” as the substance, how does the abundance fitness read?
Its abundance fitness is 0.078 ± 0.097.

Which abundance fitness does the source give for “SAFB-like transcription modulator T42D, Q9NWH9” here?
The abundance fitness was 0.061 ± 0.092.

With “SAFB-like transcription modulator T42E, Q9NWH9” as the substance, how does the abundance fitness read?
The abundance fitness was -0.107 ± 0.12.

Which abundance fitness does the source give for “SAFB-like transcription modulator T42G, Q9NWH9” here?
Its abundance fitness is -0.247 ± 0.085.

Which abundance fitness does the source give for “SAFB-like transcription modulator T42I, Q9NWH9” here?
Its abundance fitness is -0.682 ± 0.14.

For “SAFB-like transcription modulator T42K, Q9NWH9”, which abundance fitness is on record?
Its abundance fitness is 0.035 ± 0.11.

With “SAFB-like transcription modulator T42L, Q9NWH9” as the substance, how does the abundance fitness read?
The abundance fitness was -0.345 ± 0.069.

For “SAFB-like transcription modulator T42M, Q9NWH9”, which abundance fitness is on record?
The abundance fitness was -0.104 ± 0.09.

With “SAFB-like transcription modulator T42N, Q9NWH9” as the substance, how does the abundance fitness read?
The abundance fitness was -0.442 ± 0.16.

For “SAFB-like transcription modulator T42P, Q9NWH9”, which abundance fitness is on record?
The abundance fitness was -0.729 ± 0.051.

For “SAFB-like transcription modulator T42Q, Q9NWH9”, which abundance fitness is on record?
The abundance fitness was 0.127 ± 0.1.

Which abundance fitness does the source give for “SAFB-like transcription modulator T42R, Q9NWH9” here?
Its abundance fitness is 0.057 ± 0.084.

For “SAFB-like transcription modulator T42S, Q9NWH9”, which abundance fitness is on record?
The abundance fitness was 0.071 ± 0.095.

For “SAFB-like transcription modulator T42V, Q9NWH9”, which abundance fitness is on record?
The abundance fitness was -0.488 ± 0.099.

For “SAFB-like transcription modulator T42W, Q9NWH9”, which abundance fitness is on record?
Its abundance fitness is -0.315 ± 0.095.

For “SAFB-like transcription modulator T42Y, Q9NWH9”, which abundance fitness is on record?
Its abundance fitness is 0.194 ± 0.11.

With “SAFB-like transcription modulator T46A, Q9NWH9” as the substance, how does the abundance fitness read?
Its abundance fitness is -0.062 ± 0.068.

With “SAFB-like transcription modulator T46C, Q9NWH9” as the substance, how does the abundance fitness read?
Its abundance fitness is 0.066 ± 0.074.

For “SAFB-like transcription modulator T46D, Q9NWH9”, which abundance fitness is on record?
Its abundance fitness is -0.235 ± 0.088.

With “SAFB-like transcription modulator T46E, Q9NWH9” as the substance, how does the abundance fitness read?
Its abundance fitness is 0.004 ± 0.068.

For “SAFB-like transcription modulator T46F, Q9NWH9”, which abundance fitness is on record?
The abundance fitness was -0.358 ± 0.088.

For “SAFB-like transcription modulator T46G, Q9NWH9”, which abundance fitness is on record?
The abundance fitness was -0.094 ± 0.06.

Which abundance fitness does the source give for “SAFB-like transcription modulator T46H, Q9NWH9” here?
Its abundance fitness is 0.011 ± 0.071.

For “SAFB-like transcription modulator T46I, Q9NWH9”, which abundance fitness is on record?
The abundance fitness was -0.107 ± 0.073.

For “SAFB-like transcription modulator T46K, Q9NWH9”, which abundance fitness is on record?
Its abundance fitness is 0.074 ± 0.09.

Which abundance fitness does the source give for “SAFB-like transcription modulator T46L, Q9NWH9” here?
The abundance fitness was -0.082 ± 0.052.

Which abundance fitness does the source give for “SAFB-like transcription modulator T46M, Q9NWH9” here?
The abundance fitness was 0.111 ± 0.073.

For “SAFB-like transcription modulator T46N, Q9NWH9”, which abundance fitness is on record?
Its abundance fitness is 0.103 ± 0.093.

For “SAFB-like transcription modulator T46P, Q9NWH9”, which abundance fitness is on record?
The abundance fitness was 0.037 ± 0.071.

Which abundance fitness does the source give for “SAFB-like transcription modulator T46Q, Q9NWH9” here?
Its abundance fitness is -0.137 ± 0.074.

For “SAFB-like transcription modulator T46R, Q9NWH9”, which abundance fitness is on record?
Its abundance fitness is -0.163 ± 0.064.

For “SAFB-like transcription modulator T46S, Q9NWH9”, which abundance fitness is on record?
Its abundance fitness is 0.05 ± 0.059.

Which abundance fitness does the source give for “SAFB-like transcription modulator T46W, Q9NWH9” here?
The abundance fitness was -0.129 ± 0.038.

With “SAFB-like transcription modulator T46Y, Q9NWH9” as the substance, how does the abundance fitness read?
Its abundance fitness is -0.097 ± 0.088.

For “SAFB-like transcription modulator V27A, Q9NWH9”, which abundance fitness is on record?
Its abundance fitness is -0.395 ± 0.1.

For “SAFB-like transcription modulator V27C, Q9NWH9”, which abundance fitness is on record?
The abundance fitness was -0.067 ± 0.094.

For “SAFB-like transcription modulator V27D, Q9NWH9”, which abundance fitness is on record?
The abundance fitness was -0.127 ± 0.12.

With “SAFB-like transcription modulator V27E, Q9NWH9” as the substance, how does the abundance fitness read?
The abundance fitness was -0.153 ± 0.11.

With “SAFB-like transcription modulator V27F, Q9NWH9” as the substance, how does the abundance fitness read?
The abundance fitness was -0.585 ± 0.15.

For “SAFB-like transcription modulator V27G, Q9NWH9”, which abundance fitness is on record?
The abundance fitness was -0.405 ± 0.088.

Which abundance fitness does the source give for “SAFB-like transcription modulator V27I, Q9NWH9” here?
Its abundance fitness is -0.011 ± 0.054.

Which abundance fitness does the source give for “SAFB-like transcription modulator V27K, Q9NWH9” here?
Its abundance fitness is -0.533 ± 0.27.

Which abundance fitness does the source give for “SAFB-like transcription modulator V27L, Q9NWH9” here?
The abundance fitness was -0.21 ± 0.082.

Which abundance fitness does the source give for “SAFB-like transcription modulator V27M, Q9NWH9” here?
The abundance fitness was 0.158 ± 0.099.

Which abundance fitness does the source give for “SAFB-like transcription modulator V27N, Q9NWH9” here?
Its abundance fitness is -0.453 ± 0.16.

Which abundance fitness does the source give for “SAFB-like transcription modulator V27Q, Q9NWH9” here?
The abundance fitness was -0.426 ± 0.15.

With “SAFB-like transcription modulator V27R, Q9NWH9” as the substance, how does the abundance fitness read?
Its abundance fitness is -0.241 ± 0.07.

Which abundance fitness does the source give for “SAFB-like transcription modulator V27S, Q9NWH9” here?
Its abundance fitness is -0.417 ± 0.097.

With “SAFB-like transcription modulator V27T, Q9NWH9” as the substance, how does the abundance fitness read?
The abundance fitness was 0.086 ± 0.092.

For “SAFB-like transcription modulator V27W, Q9NWH9”, which abundance fitness is on record?
The abundance fitness was -0.396 ± 0.09.

Which abundance fitness does the source give for “SAFB-like transcription modulator V27Y, Q9NWH9” here?
Its abundance fitness is -0.29 ± 0.24.

For “SAFB-like transcription modulator V44A, Q9NWH9”, which abundance fitness is on record?
The abundance fitness was 0.064 ± 0.039.

For “SAFB-like transcription modulator V44C, Q9NWH9”, which abundance fitness is on record?
The abundance fitness was 0.036 ± 0.076.

With “SAFB-like transcription modulator V44D, Q9NWH9” as the substance, how does the abundance fitness read?
Its abundance fitness is 0.055 ± 0.072.

Which abundance fitness does the source give for “SAFB-like transcription modulator V44E, Q9NWH9” here?
The abundance fitness was -0.124 ± 0.075.

With “SAFB-like transcription modulator V44F, Q9NWH9” as the substance, how does the abundance fitness read?
Its abundance fitness is 0.002 ± 0.075.

Which abundance fitness does the source give for “SAFB-like transcription modulator V44H, Q9NWH9” here?
Its abundance fitness is 0.126 ± 0.089.

Which abundance fitness does the source give for “SAFB-like transcription modulator V44I, Q9NWH9” here?
Its abundance fitness is -0.057 ± 0.054.

Which abundance fitness does the source give for “SAFB-like transcription modulator V44K, Q9NWH9” here?
The abundance fitness was -0.233 ± 0.088.

With “SAFB-like transcription modulator V44L, Q9NWH9” as the substance, how does the abundance fitness read?
Its abundance fitness is -0.122 ± 0.038.

For “SAFB-like transcription modulator V44M, Q9NWH9”, which abundance fitness is on record?
Its abundance fitness is -0.092 ± 0.058.

With “SAFB-like transcription modulator V44N, Q9NWH9” as the substance, how does the abundance fitness read?
The abundance fitness was 0.048 ± 0.058.

Which abundance fitness does the source give for “SAFB-like transcription modulator V44P, Q9NWH9” here?
Its abundance fitness is 0.014 ± 0.049.

With “SAFB-like transcription modulator V44Q, Q9NWH9” as the substance, how does the abundance fitness read?
Its abundance fitness is -0.134 ± 0.078.

For “SAFB-like transcription modulator V44R, Q9NWH9”, which abundance fitness is on record?
Its abundance fitness is -0.054 ± 0.034.

For “SAFB-like transcription modulator V44S, Q9NWH9”, which abundance fitness is on record?
The abundance fitness was 0.036 ± 0.051.

With “SAFB-like transcription modulator V44T, Q9NWH9” as the substance, how does the abundance fitness read?
The abundance fitness was -0.008 ± 0.06.

For “SAFB-like transcription modulator V44W, Q9NWH9”, which abundance fitness is on record?
The abundance fitness was -0.358 ± 0.055.

Which abundance fitness does the source give for “SAFB-like transcription modulator V44Y, Q9NWH9” here?
Its abundance fitness is -0.258 ± 0.081.

Which abundance fitness does the source give for “SAFB-like transcription modulator V47A, Q9NWH9” here?
Its abundance fitness is -0.025 ± 0.058.

With “SAFB-like transcription modulator V47C, Q9NWH9” as the substance, how does the abundance fitness read?
Its abundance fitness is -0.074 ± 0.037.

Which abundance fitness does the source give for “SAFB-like transcription modulator V47D, Q9NWH9” here?
The abundance fitness was -0.001 ± 0.065.

For “SAFB-like transcription modulator V47E, Q9NWH9”, which abundance fitness is on record?
Its abundance fitness is 0.022 ± 0.068.

Which abundance fitness does the source give for “SAFB-like transcription modulator V47F, Q9NWH9” here?
The abundance fitness was -0.447 ± 0.044.

With “SAFB-like transcription modulator V47G, Q9NWH9” as the substance, how does the abundance fitness read?
The abundance fitness was -0.28 ± 0.038.

Which abundance fitness does the source give for “SAFB-like transcription modulator V47H, Q9NWH9” here?
Its abundance fitness is -0.329 ± 0.081.

Which abundance fitness does the source give for “SAFB-like transcription modulator V47I, Q9NWH9” here?
Its abundance fitness is 0.051 ± 0.066.

With “SAFB-like transcription modulator V47K, Q9NWH9” as the substance, how does the abundance fitness read?
Its abundance fitness is 0.003 ± 0.063.

For “SAFB-like transcription modulator V47L, Q9NWH9”, which abundance fitness is on record?
Its abundance fitness is -0.125 ± 0.038.

Which abundance fitness does the source give for “SAFB-like transcription modulator V47M, Q9NWH9” here?
The abundance fitness was 0.013 ± 0.061.

With “SAFB-like transcription modulator V47N, Q9NWH9” as the substance, how does the abundance fitness read?
Its abundance fitness is -0.079 ± 0.045.

With “SAFB-like transcription modulator V47P, Q9NWH9” as the substance, how does the abundance fitness read?
The abundance fitness was -0.585 ± 0.056.

Which abundance fitness does the source give for “SAFB-like transcription modulator V47Q, Q9NWH9” here?
Its abundance fitness is 0.019 ± 0.047.

For “SAFB-like transcription modulator V47R, Q9NWH9”, which abundance fitness is on record?
Its abundance fitness is -0.207 ± 0.043.

For “SAFB-like transcription modulator V47S, Q9NWH9”, which abundance fitness is on record?
Its abundance fitness is -0.152 ± 0.048.

For “SAFB-like transcription modulator V47T, Q9NWH9”, which abundance fitness is on record?
The abundance fitness was 0.089 ± 0.064.

For “SAFB-like transcription modulator V47Y, Q9NWH9”, which abundance fitness is on record?
Its abundance fitness is -0.525 ± 0.044.
